From the nanobody polyreactivity screen of Harvey et al. (2022)

Assay: yeast display, Sf9 membrane polyspecificity reagent, FACS + sequencing; frameworks hold sequencing errors
In short: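 Using colony PCR, genes from sorted yeast display clones were amplified, then sequenced on MiSeq at 2 × 250 and filtered by CDR length. The clones had been stained with 10% biotinylated, detergent-solubilized Sf9 membrane reagent for 1 hour at 4 °C and sorted by FACS into low and high (top ~1%) gates on anti-HA and streptavidin fluorescence. Polyreactivity labels come from the gate of origin.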

Sequence | polyreactivity (PSR sort gate)
QVQLVESGGGLVQAGGSLRLSCAASGRTFYGYAMGWSRQAPGKERELVAAISVSGGGTYYADSVKGRFTISRDNAKYTVYLQMNSLKPEDTAVYYCAAAVYERPRDYYYWGQGTQVTVSS | low polyreactivity
QVQLVESGGGLDQAGGSLRLSCAASGSTYPGNAMGWYRQAPGKERELVAAIDSSTGSTYYADSVKGRFTISRDHAKNTVYLQMNSLKPEDNAVYYCNKTSFLVKLDYWGLGTQVTVSS | low polyreactivity
QVLVGESGGGLVQAGGSLRLSCAASGSTFSNYAMGWYRQAPGTERELVAVSTRGASTYYADSVKGRFTISRDNAKNTVYLQMNTLKPEDTAVYYCAASYWRYRVVHSPYRYYYWGQGTQVNVSS | high polyreactivity
QVQLQESGGGQVHAGGSLRLSCAASGTIFLYAFMGWYRQPPAKERELVAAIDVGTTTNYADSVKGRFTISRDNEKNTVYLQMNSLKPEDTAVYYCAANLGYLDDLGYWGQGTQVTVSS | low polyreactivity
QVQLVESGGGLVQAGGSLRLSCAASGSIFYVYAMGWYRQAPGKERELVAAITWSGGSTYYADSVKGRFTISRDNAKNTVYLQMNSLKPEDTAVYYCAADEGYDYPYYYWGQGTQVTVSS | high polyreactivity
QVQLVESGGGLVQAGGSLRLSCAASGLIFYYYAMGWYRQAPGQERELVAAITSDDRTYYADSVKGRFTISRDNAKNTVYLQMNSLKPEDTAVYYCAARYHGYLPQYRKYGYGYWGQGTQVTVSS | high polyreactivity
QVQLVESGGGLVQAGGSLRLSCAASGSIFYGYAMGWYRQAPGKEREFVAAITWSGGSTHYADSVKGRFTNSRDNAKNTVYVQMNSLKPEDTAVYYCAAPSYGNYPYRSYVWYGYWGQGTQVTVSS | high polyreactivity
QVQLVESGGGLVQAGGSLRLSCAASGYNFKRYTMGWYRQAPGKERELVAAISGGDSTNYADSVKGRFTISRDNAKNTVYLHMNSLKPEDTAVYYCAAGGLTLWHGYILGYWGQGTQVTVSS | low polyreactivity
QVQLVESGGGLVQAGGSLRLICAASGSIFLTNAMGWYRQAPGKEREFVAAIDWGCTITYYADSVKGRFTISRDNAKNTVYLQMNSLKPEDTAVYYCGADPTYPYGYWGQGTQVSVSS | low polyreactivity
QVQLVESGGGLVQAGGSLRLSCAASGLIFADYVMGWYRQAPGKERELVVTINQGGGSTYYADSVKGRFTISRDNAKNTVYLQMNSLKPEDTAVYYCAATWALLYAIFESYDYWGQGTQVTVSS | low polyreactivity
QVQLVESGGRLVQAVGRLRLSCAASGFIFSRYAMRWYRPAPGKERELVAVISYSGGITYYADSVKGRFTISRDNAKNTVYLQMNSLKPEDTAVYYCAVGGTPRYSKYDYWGQGTQVTVSS | low polyreactivity
QVQLVESGGGLVQAGGSLRLSCAASGITFFTYGLGWYRQAPGKERELVASINWSGGTYYADSVKGRFTISRDKAKNTVYLQMNSLKPEDTAVYYCAAETHVESGSRDFYTEDYWGQGTQVTVSS | low polyreactivity
QVQLVESGGGLVQAGGSLRLSFAASGFIFPYYAMGWYRQAPGKERELVAAITSSGGSTYYADSVKGRFTISRDNAKNTVYLQMNSLKPEDTAVYYCNAYGRRTREYDYWGQGTQVTVSS | high polyreactivity
QVQLVESGGGLVQAGGSLRLSCAASGRTFFTNAMGWYRQAPGKERELVASINSGGNTTYADSVKGRFTISRDNAKNTVYIQMNSLKPEDTAVYYCAAVRSAQRWRRYYYWGQGTQVTVSS | low polyreactivity
QVQLVESGGGLVQAGGSLRLSYAPSGRTFGYYAMGWYRQAPGKERELVAAIRSTGSTNYADSVKGRFTISRDNAKNTVYLQMNRLKPEDTAVYYCNAKRRFRYDYWGQGTQVTVSS | low polyreactivity
QVQLVESGGGLVQAGGSLRLSCAASGSTFVYYAMGWYRQAPGKERELVAAISWSGTRTYYADSVKGRFTISRDNAKNTVYLQMNSLKPEDTAVYYCATRKQSRSVGYNYWGQGTQVTVSS | high polyreactivity
QVQLVESGGGLVQAGGSLLISCAASGSTFLLNAMGWYRQAPGKERELVAAITGSGTTTYYADSVKGRFTISRDNAKNTVFLHMNSLKPEDTAVYYCAAYAYYHTGDDYWGQGTQVTVSS | high polyreactivity
QVQLVESGGGLVQAGGSLRLSCSASGRTFWRYAMGWYRQAPGKERELVAAISSGGRTNYADSVKGRFTISRDNAKNTVYLQMNSLIPEDTAVYYCAADSYYGYGYWGQGTQVTVSS | high polyreactivity
QVQLVESGGGLVQAGGSLRLSCAASGSIFRANALGWYRPAPGKERELVAAISASGGRTYYADSVKGRFTISRDNAKNTVYLQMNSLKPEDTAVYYCNAYYGYLYHYTYDYWGQGTQVTVSS | high polyreactivity
QVQLVESVGCLVQAGGTLRLSCAATGRIFADYAMGWYRQAPGKERELVATITSGDRTYYADSVKGRFTTSRDNAKNTVYLQMNSLKPEDTAVYYCAAYKPWYVGLYPWYDYWGQGTQVTVSS | low polyreactivity
QVQLVESGGGLVQAGGSLRLSCAPSGYIPYWYAMGWYRQAPGKERELVAAIDWSGASTNYADSVKGRFTISRDNAKNTVYLQMNSLKPEDTAVYYCAADAVSPDYFVWGDYWGQGTQVTVSS | high polyreactivity
QVQLVESGGGLDQAGGSLRLSCAASGFIYSYAMGWYRQAPGKERELVAAIRRGGPTNYADSVKGRFSISRDNAKTTVYLPMNSRKPEDTAVYYCAADSWFRRNEYDDWGQGTQVTVAS | high polyreactivity

Sequence | polyreactivity (PSR sort gate)
QVQLVESGGGLVQAGGSLRLSCAASGRIFFDYAMGSYRQAPGKEWVLVAAINRGGRTYYADSVKGRFTMSRDNAKNTVYLPMNTLKPEDTAVYYCPADGQTAKSNFAYWGQRTQVTVSS | low polyreactivity
QVQLVESGGALVQAGGSHRLSCAASGIIFDYNAAMGWYRQAPGKERELVAAISISGGSTYYADSVKGRFTISRDNAKNTVYLQMNSPKPEDTAVSYCAAVNYEWNYGYDYWGPGTQVTVSS | low polyreactivity
QVQLLESGGGLDQAGGSLRLSTAASGSTFGVYAMGWYRQARGKEREMVAAISRRGGSTYYADSVKGRFTISRDNAKNTVYLQMNSLKPEDTAVYYCAARGGQMEYWGQGTQVTVSS | high polyreactivity
QVQLVESGGGLVQAGGSLRLSCAASGGIFYRYAMGWYRQAPGKEREFVASITSSGDRTYYADSVKGRFTISRDNAKNTVYLQMNSLKPEDTAVYYCAAVYTAAWGGRYHYWGQGTQVTVSS | high polyreactivity
QVQRVESGGGLVQAGGSLRLSCAASGRTLRYKGLYRQAPGKERELVAAITTGVSTNYADSVKGRFTISRDNAKNTVYLQMNSLKPEDTAVYYCAARARGTVYQYYYWGQGTQVTVSS | high polyreactivity
QVQLVESGGGLVQAGGSLRLSCAASGRTYVYNAMGLYRHAPGKERELVAGITNGGSTNYADSVKGRFTISRDNAKNTVYLQMNSLKPEDTAVYYCNRDVKVLYASSHSPYGYDHWGQGTQVTVSS | low polyreactivity
QVQLVESGGGLVQAGGSLRLSCAASGGIFYGYAMGWYRQAPGKERELVASITSDGSTYADSVKGRFTISRDNAKNTVYLQMNSLKPEDTAVYYCNKEILVIVTYDYWGQGTQVTVSS | low polyreactivity
QVQLVESGGGLVQAGGSLRLSCAASGLTFVKNVMGWYRQAPGKERELVAAISRRGGSTYSADSVKGRFTISRDNAKNTVYLQMNSLQPADTAVYYCAARTPSPTRPQYYYWGQGTQVTVSS | high polyreactivity
QVQLVESGGGLVQAGGSLRLSCAASGSIFRNAMGWYRQAPGKERELVATISYRGGSTYYADSVKGRFTISRDNAKNTVYLQMNSLKPEDTAVYYCNADSKLVGYNYWGQGTQVTVSS | low polyreactivity
QVQLVESGGGLVQAGGSLRLSCAASGSIFQGYAMGWYRQAPGKERELVASISRGGSTNYADSVKGRFTISRDNAKNTVYLQMNSLKPEDTAVYYCAARAYWYGRYGYWGQGTQVTVSS | high polyreactivity
QVQLVESGGGLVQAGGSLRLSCAASGLTFIPNAMGWYREAPGKERELVAAISGTGGSTYYADSVKGRFTISRDNAKNTVYLLMNSLKPEDTAVYYCAARRRYKSGYWGQGTQVTVSS | high polyreactivity
QVQLVESGGGLVQAGGSLRLSCAASGIIFGKYVMGWYRQAPGKEREFVAAISVRSGSTYYADSVKGRFTISRDNAKNTVYLQMNSLKPEDTALYYCAAREPVPRHLDYYYWGQGTQVSVSS | high polyreactivity
QVQLVESGGGLVQAGGSLRLSCAASGRIFVGYAMGWYRQAPGKERELVAAINRSGSSTYYADSVKGRFTISRDNAKNTVYLQTNSLKPEDTAVYYCAVRPLYDRRYTAVRRYDYWGQGTQVTVSS | high polyreactivity
QVQLVESGGGLVQAGGSLRLSCAASGSIFGYYTMGWYRQAPGKERELVAAISKNGGSTYYADSVKGRFTISRDNAKNTVYLQMNSLKPEDTAVYYCAAEYTRKGVSGSGYDYWGQGTQVTVSS | low polyreactivity
QVQLVESGGGLVQAGGSLRLSCAASGSTYTLNAMGWYRQAPGKERELVADITSGGGGTYYADSVKGRFTISRDNAKNTVYLQMNSLKPEDTAVYYCAADDFHSLLGYWYGLFDYWGQGTQVTVSS | low polyreactivity
QVQLVESGGRLVQAGGSLRLSCAASGFTFGAYAMGWYRQAPGKERELVATIRYSGDSTYYADSVKGRFTISRDNAKNTVYLQMNSLKPEDTAVYYCAADVYGGIGYDYWGQGTQVTVSS | low polyreactivity
QVQLVESGGGLVQAGGSLRLSCAASGSTFQPYTMGWYRQAPGKERELVAAISSSGRTNYADSVKGRFTISRDNAKNTVYLQMNSLKPEDTAVYYCNRDYPYIWHKGARYWHENDYWGQGTQVTVSS | low polyreactivity
QVQLVESGGGLVQAGGSLRLSCAASGRIFSFYTMGWSRQAPGKERELVAAISNVGGTDYADSVKGRFTISRDNAKNTVYLQMNSLKPEDTAVYYCHAAWGRYFRYRWYTNGLDYWGQGTQVTVSS | low polyreactivity
QVQLVESGGGLVQAGGSLRLSCAASGNTFYVNVMGWYRQAPGKERELVARITTSGGSTSYADSVKGRFTISRDNAKNTVYLQMNSLKPEDTAVYYCAADFPEYYLPYDYWGQGTQVTVSS | low polyreactivity
QVQLVESGGGLVQAGGSLRLSCAASGIIFWDNAMGWYRQAPGQDRELVASINYSGGSTYYADSVKGRFTISRDNAKNTVYLQMNSLKPEDTAVYDCAARTVTLDDWDYAYDYWGQGTQVTVSS | low polyreactivity
HVQLEESGGGLVQAGGSLRLSCAASGSISRANPSGWSRTAPGKERELLPANSRGGTTTYYADSVKGRFTISRDNAKNTVYLQMNSLKPEDTAVYYCAAVAGGGFPRWRIYFWPKGDYWGQGTQVTVSS | high polyreactivity
